Broadly, the kon is the second-order rate constant of association. For orientation: koff means the first-order rate constant of dissociation. What is called Kd is a measure of binding affinity in units of concentration.

Common to all, as to settings: both partners purified
In test [1] the target is T1, filamentous actin (F-actin) (UniProt P68135 1-377). Kind of test: stopped-flow light scattering; myosin motor domain binding to F-actin in the presence of ADP; salt free stopped-flow buffer.
Test [2] has as its target T2, pyrene-labeled filamentous actin (UniProt P68135 1-377, pyrene label). Kind of test: stopped-flow pyrene-actin fluorescence; dissociation of the myosin motor domain from pyrene-actin in the presence of ADP; salt free stopped-flow buffer.
The target in test [3] is T1, filamentous actin (F-actin). Kind of test: stopped-flow light scattering + other: stopped-flow pyrene-actin fluorescence; dissociation equilibrium constant calculated as k-DA/k+DA; presence of ADP; salt free stopped-flow buffer.
Test [4] shares this target. As to the kind of experiment: stopped-flow light scattering; myosin motor domain binding to F-actin in a stopped-flow system; salt free stopped-flow buffer; samples treated with apyrase prior to the assay (rigor conditions).
For test [5] the target is unchanged. As to the kind of experiment: stopped-flow light scattering + other: stopped-flow pyrene-actin fluorescence; dissociation equilibrium constant calculated as k-A/k+A; absence of nucleotide (rigor); salt free stopped-flow buffer.
The target in test [6] is T2, pyrene-labeled filamentous actin. As to the kind of experiment: stopped-flow pyrene-actin fluorescence; dissociation of the myosin motor domain from pyrene-actin; salt free stopped-flow buffer; samples treated with apyrase prior to the assay (rigor conditions).

B1: human nonmuscle myosin-2C motor domain (amino acids 1-799) directly fused to spectrin repeats 1 and 2 from Dictyostelium alpha-actinin, C-terminal Flag-tag (domain or fragment)
chain: MAAVTMSVPGRKAPPRPGPVPEAAQPFLFTPRGPSAGGGPGSGTSPQVEWTARRLVWVPSELHGFEAAALRDEGEEEAEVELAESGRRLRLPRDQIQRMNPPKFSKAEDMAELTCLNEASVLHNLRERYYSGLIYTYSGLFCVVINPYKQLPIYTEAIVEMYRGKKRHEVPPHVYAVTEGAYRSMLQDREDQSILCTGESGAGKTENTKKVIQYLAHVASSPKGRKEPGVPGELERQLLQANPILEAFGNAKTVKNDNSSRFGKFIRINFDVAGYIVGANIETYLLEKSRAIRQAKDECSFHIFYQLLGGAGEQLKADLLLEPCSHYRFLTNGPSSSPGQERELFQETLESLRVLGFSHEEIISMLRMVSAVLQFGNIALKRERNTDQATMPDNTAAQKLCRLLGLGVTDFSRALLTPRIKVGRDYVQKAQTKEQADFALEALAKATYERLFRWLVLRLNRALDRSPRQGASFLGILDIAGFEIFQLNSFEQLCINYTNEKLQQLFNHTMFVLEQEEYQREGIPWTFLDFGLDLQPCIDLIERPANPPGLLALLDEECWFPKATDKSFVEKVAQEQGGHPKFQRPRHLRDQADFSVLHYAGKVDYKANEWLMKNMDPLNDNVAALLHQSTDRLTAEIWKDVEGIVGLEQVSSLGDGPPGGRPRRGMFRTVGQLYKESLSRLMATLSNTNPSFVRCIVPNHEKRAGKLEPRLVLDQLRCNGVLEGIRICRQGFPNRILFQEFRQRYEILTPNAIPKGFMDGKQACEKMIQALELDPNLYRVGQSKIFFRAGVLAQLEEEREQTKSDYLKRANELVQWINDKQASLESRDFGDSIESVQSFMNAHKEYKKTEKPPKGQEVSELEAIYNSLQTKLRLIKREPFVAPAGLTPNEIDSTWSALEKAEQEHAEALRIELKRQKKIAVLLQKYNRILKKLENWATTKSVYLGSNETGDSITAVQAKLKNLEAFDGECQSLEGQSNSDLLSILAQLTELNYNGVPELTERKDTFFAQQWTGVKSSAETYKNT
notes: nonmuscle myosin-2C heavy chain (gene product of MYH14), human, motor domain, amino acids 1-799; alpha-actinin, Dictyostelium discoideum, spectrin repeats 1 and 2, used as artificial lever arm; Monomeric motor domain construct; also called NM2C; Hs NM2C; source: Sf9/baculovirus system, purified to electrophoretic homogeneity
B1: the results for the kon in test [1] and in test [4] were 530000 ± 10000 M⁻¹ s⁻¹ and 2.49e+06 ± 70000 M⁻¹ s⁻¹, respectively. Besides, the off-rate constant (koff) was about 0.004 s⁻¹ in test [2] and about 0.15 s⁻¹ in test [6]. The results for the Kd in test [3] and in test [5] were about 8 nM and about 60 nM, respectively.

B2: human nonmuscle myosin-2C motor domain (amino acids 1-799) R788E fused to spectrin repeats 1 and 2 from Dictyostelium alpha-actinin, C-terminal Flag-tag (domain or fragment)
chain: MAAVTMSVPGRKAPPRPGPVPEAAQPFLFTPRGPSAGGGPGSGTSPQVEWTARRLVWVPSELHGFEAAALRDEGEEEAEVELAESGRRLRLPRDQIQRMNPPKFSKAEDMAELTCLNEASVLHNLRERYYSGLIYTYSGLFCVVINPYKQLPIYTEAIVEMYRGKKRHEVPPHVYAVTEGAYRSMLQDREDQSILCTGESGAGKTENTKKVIQYLAHVASSPKGRKEPGVPGELERQLLQANPILEAFGNAKTVKNDNSSRFGKFIRINFDVAGYIVGANIETYLLEKSRAIRQAKDECSFHIFYQLLGGAGEQLKADLLLEPCSHYRFLTNGPSSSPGQERELFQETLESLRVLGFSHEEIISMLRMVSAVLQFGNIALKRERNTDQATMPDNTAAQKLCRLLGLGVTDFSRALLTPRIKVGRDYVQKAQTKEQADFALEALAKATYERLFRWLVLRLNRALDRSPRQGASFLGILDIAGFEIFQLNSFEQLCINYTNEKLQQLFNHTMFVLEQEEYQREGIPWTFLDFGLDLQPCIDLIERPANPPGLLALLDEECWFPKATDKSFVEKVAQEQGGHPKFQRPRHLRDQADFSVLHYAGKVDYKANEWLMKNMDPLNDNVAALLHQSTDRLTAEIWKDVEGIVGLEQVSSLGDGPPGGRPRRGMFRTVGQLYKESLSRLMATLSNTNPSFVRCIVPNHEKRAGKLEPRLVLDQLRCNGVLEGIRICRQGFPNRILFQEFRQRYEILTPNAIPKGFMDGKQACEKMIQALELDPNLYRVGQSKIFFEAGVLAQLEEEREQTKSDYLKRANELVQWINDKQASLESRDFGDSIESVQSFMNAHKEYKKTEKPPKGQEVSELEAIYNSLQTKLRLIKREPFVAPAGLTPNEIDSTWSALEKAEQEHAEALRIELKRQKKIAVLLQKYNRILKKLENWATTKSVYLGSNETGDSITAVQAKLKNLEAFDGECQSLEGQSNSDLLSILAQLTELNYNGVPELTERKDTFFAQQWTGVKSSAETYKNT
notes: nonmuscle myosin-2C heavy chain (gene product of MYH14), human, motor domain, amino acids 1-799, with R788E; alpha-actinin, Dictyostelium discoideum, spectrin repeats 1 and 2, used as artificial lever arm; Point mutant made by people on the fusion construct m1; also called Hs R788E; R788E (kinetic studies); source: Sf9/baculovirus system, purified to electrophoretic homogeneity
Take B2: the kon in test [1] was 210000 ± 10000 M⁻¹ s⁻¹; in test [4], 660000 ± 30000 M⁻¹ s⁻¹. In addition, the figures for the koff in test [2] and in test [6] were about 0.002 s⁻¹ and about 0.031 s⁻¹, respectively. In addition, the Kd in test [3] is about 9 nM; in test [5] it was about 47 nM.

B3: human nonmuscle myosin-2C motor domain (amino acids 1-799) R788K fused to spectrin repeats 1 and 2 from Dictyostelium alpha-actinin, C-terminal Flag-tag (domain or fragment)
chain: MAAVTMSVPGRKAPPRPGPVPEAAQPFLFTPRGPSAGGGPGSGTSPQVEWTARRLVWVPSELHGFEAAALRDEGEEEAEVELAESGRRLRLPRDQIQRMNPPKFSKAEDMAELTCLNEASVLHNLRERYYSGLIYTYSGLFCVVINPYKQLPIYTEAIVEMYRGKKRHEVPPHVYAVTEGAYRSMLQDREDQSILCTGESGAGKTENTKKVIQYLAHVASSPKGRKEPGVPGELERQLLQANPILEAFGNAKTVKNDNSSRFGKFIRINFDVAGYIVGANIETYLLEKSRAIRQAKDECSFHIFYQLLGGAGEQLKADLLLEPCSHYRFLTNGPSSSPGQERELFQETLESLRVLGFSHEEIISMLRMVSAVLQFGNIALKRERNTDQATMPDNTAAQKLCRLLGLGVTDFSRALLTPRIKVGRDYVQKAQTKEQADFALEALAKATYERLFRWLVLRLNRALDRSPRQGASFLGILDIAGFEIFQLNSFEQLCINYTNEKLQQLFNHTMFVLEQEEYQREGIPWTFLDFGLDLQPCIDLIERPANPPGLLALLDEECWFPKATDKSFVEKVAQEQGGHPKFQRPRHLRDQADFSVLHYAGKVDYKANEWLMKNMDPLNDNVAALLHQSTDRLTAEIWKDVEGIVGLEQVSSLGDGPPGGRPRRGMFRTVGQLYKESLSRLMATLSNTNPSFVRCIVPNHEKRAGKLEPRLVLDQLRCNGVLEGIRICRQGFPNRILFQEFRQRYEILTPNAIPKGFMDGKQACEKMIQALELDPNLYRVGQSKIFFKAGVLAQLEEEREQTKSDYLKRANELVQWINDKQASLESRDFGDSIESVQSFMNAHKEYKKTEKPPKGQEVSELEAIYNSLQTKLRLIKREPFVAPAGLTPNEIDSTWSALEKAEQEHAEALRIELKRQKKIAVLLQKYNRILKKLENWATTKSVYLGSNETGDSITAVQAKLKNLEAFDGECQSLEGQSNSDLLSILAQLTELNYNGVPELTERKDTFFAQQWTGVKSSAETYKNT
notes: nonmuscle myosin-2C heavy chain (gene product of MYH14), human, motor domain, amino acids 1-799, with R788K; alpha-actinin, Dictyostelium discoideum, spectrin repeats 1 and 2, used as artificial lever arm; Point mutant made by people on the fusion construct m1; also called Hs R788K; R788K (kinetic studies); source: Sf9/baculovirus system, purified to electrophoretic homogeneity
In the case of B3, the values for the kon in test [1] and in test [4] were 2.53e+06 ± 50000 M⁻¹ s⁻¹ and 1.65e+06 ± 30000 M⁻¹ s⁻¹, respectively. Besides, the values for the koff in test [2] and in test [6] were 0.067 to 0.11 s⁻¹ and 0.04 to 0.07 s⁻¹, respectively. In addition, the Kd in test [3] was 26 to 43 nM; in test [5], 24 to 42 nM.

These data come from paper PMC5749951, “Mechanistic insights into the active site and allosteric communication pathways in human nonmuscle myosin-2C” (eLife, 2017).
